Reference: paper PMC10846947 (Journal of Alzheimer's disease : JAD, 2022)

Key:
[1] = mouse, in vivo
[2] = mouse, in vivo; remark: listed apart in the source
[3] = mouse, in vivo; remark: listed apart in the source
[4] = mouse, in vivo, iv
[5] = mouse, in vivo; remark: listed apart in the source

Substance | PS product in the whole brain, WT versus APP/PS1 mice [1] | PS product in the whole brain, lower in APP/PS1 mice compared to WT mice [1] | decrease in PS values at 52 weeks [1] | decrease in PS values in various brain regions at 52 weeks [2] | increase in plasma AUC at 52 weeks [3] | plasma AUC of 125I-Aβ40 relative to 125I-Aβ42 [3] | decrease in brain influx clearance (Ki) at 104 weeks compared to 12 weeks [4] | decrease in PS products at various brain regions at 24 weeks compared to 8 weeks [5] | decrease in PS values at various brain regions at 24 weeks [1] | increase in PS values in various brain regions at 52 weeks [2]
^125I-Aβ40: custom synthesized amyloid-β 40 peptide, soluble form, radiolabeled with 125I by the chloramine-T procedure | no differences | ~ 1.5 fold | ~ 1.5 fold | ~ 4 fold | ~ 7 fold | ~ 12 fold | – | – | – | –
^125I-insulin: human insulin (Sigma-Aldrich) radiolabeled with 125I by the chloramine-T procedure | – | – | – | – | – | – | ~ 2 fold | ~ 5 fold | – | –
^125I-Aβ42: custom synthesized amyloid-β 42 peptide, soluble form, radiolabeled with 125I by the chloramine-T procedure | no significant differences | – | – | – | – | – | – | – | ~ 1.5 fold | ~ 1.5 fold
